The values that follow are results of earlier work, collected in publication PMC11589041.

Several values for one entry are separate records, joined by “and”; a condition that tells them apart may be missing. Equal values may be shown once.

As a reminder, the Kd is a measure of binding affinity in units of concentration.

The target of series [1] is INF2 DAD DAD (Homo sapiens) (UniProt Q27J81).
The target in series [2] is mDia1 DAD DAD (Mus musculus) (UniProt O08808).
mDia1 DAD DAD (Mus musculus), sequence (O08808 1174-1208): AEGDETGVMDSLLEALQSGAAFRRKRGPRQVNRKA

INF2 DAD DAD (Homo sapiens), sequence (Q27J81 967-1000): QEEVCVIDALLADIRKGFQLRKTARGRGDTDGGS
INF2 DID DID, sequence (Q27J81 1-267): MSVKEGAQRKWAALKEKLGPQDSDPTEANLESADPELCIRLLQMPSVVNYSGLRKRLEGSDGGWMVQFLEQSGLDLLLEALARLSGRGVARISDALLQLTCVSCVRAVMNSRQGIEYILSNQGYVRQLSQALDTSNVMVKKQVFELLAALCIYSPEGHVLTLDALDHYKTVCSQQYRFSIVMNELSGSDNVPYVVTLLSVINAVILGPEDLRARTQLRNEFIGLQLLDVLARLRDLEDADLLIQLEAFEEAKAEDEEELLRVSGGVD
mDia1 DID DID, sequence (O08808 129-369): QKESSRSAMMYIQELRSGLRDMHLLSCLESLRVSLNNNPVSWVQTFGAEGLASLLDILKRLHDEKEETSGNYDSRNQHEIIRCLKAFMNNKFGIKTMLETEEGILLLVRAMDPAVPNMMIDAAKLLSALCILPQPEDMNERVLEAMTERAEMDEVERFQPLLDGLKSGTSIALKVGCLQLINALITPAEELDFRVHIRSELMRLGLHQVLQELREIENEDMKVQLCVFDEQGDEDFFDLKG

For the substance INF2 DID DID (from UniProt Q27J81), the Kd in series [1] was 22 µM and 5.4 µM.

For the substance mDia1 DID DID (from UniProt O08808), the Kd in series [2] is 0.265 µM.
